The series can be described thus: soluble on expression in E. coli; label from the status in PepcDB or PDB records.
As for “MGHHHHHHSHMASVSSATFSGHGARSLLQFLRLVGQLKRVPRTGWVYRNVQRPESVSDHMYRMAVMAMVIKDDRLNKDPEAMKQITQLLPEDLRKELYELWEEYETQSSAEAKFVKQLDQCEMILQASEYEDLEHKPGRLQDFYDSTAGKFNHPEIVQLVSELEAERSTNIAAAASEPHS”, the “soluble on expression in E. coli” value is “soluble”. Regarding “MGHHHHHHSHMATSATSPHAPGFPAEGRCGYYVEKKKRFCRMVVAAGKRFCGEHAGAAEEEDARKRILCPLDPKHTVYEDQLAKHLKKCNSREKPKPDFYIQDINAGLRDETEIPEQLVPISSLSEEQLEKLIKKLRKASEGLNSTLKDHIMSHPALHDALNDPKNGDSATKHLKQQVCLGYSNY”, the “soluble on expression in E. coli” value is given as “not soluble”. Consider “MGHHHHHHSHMAVGTSALSKEPWWTLPENFHSPMVFHMEEDQEELIFGLDDTYLRCIELHSHTLIQLERCFTATGQTRVTVVGPPMAKQWLLLMFHCVGSQDSKCHARGLKMLERVRSQPLTNDDLVTSVSLPPYTGD”, for which the “soluble on expression in E. coli” value is on record as “not soluble”.

“MGHHHHHHSHMDLDSGDVKRRVHLFETQRRTKEEDPIIPFSDGPIISKWGAISRSSRTGYHTTDPVQATASQGSATKPISVSDYVPYVNAVDSRWSSYGNEATSSAHYVERDRFIVTDLSGHRKHSSTGDLLSLELQQAKSNSLLLQREANALAMQQKWNSLDEGRHLTLNLLSKEIELRNGEVKKLNLSASCLMYLFSAAASWLYHY”: the “soluble on expression in E. coli” value is given as “not soluble”.

Regarding “MGHHHHHHSHMEIPPTNYPASRAALVAQNYINYQQGTPHRVFEVQKVKQASMEDIPGRGHKYHLKFAVEEIIQKQVKVNCTAEVLYPSTGQETAPEVNFTFEGETGKNPDEEDNTFYQRLKSMKEPLEAQNIPDNFGNVSPEMTLVLHLAWVACGYIIWQNSTEDTWYKMVKIQTVKQVQRNDDFIELDYTILLHNIASQEIIPWQMQVLWHPQYGTKVKHNSRLPKEVQLE”, the “soluble on expression in E. coli” value is “not soluble”. “MGHHHHHHSHMEPRVTQRKRPLDGCMGKITGITSDILKYDHKCFKLSLPAKFPEVCGSDEVFPDPDLLHVLPVAGSLQQSIDQCCLQLESLCRPGLLCAHPTLLFKLHSSMKNRPFFSLIYTYVKKTQQVRKRDRKPRGQVAAGPNPTSVM”: the “soluble on expression in E. coli” value is listed as “not soluble”.

“MGHHHHHHSHMEQTEVLKPRTLADLIRILHQLFAGDEVNVEEVQAIMEAYESDPIEWAMYAKFDQYRYTRNLVDQGNGKFNLMILCWGEGHGSSIHDHTNSHCFLKMLQGNLKETLFAWPDKKSNEMVKKSERVLRENQCAYINDSIGLHRVENISHTEPAVSLHLYSPPFDTCHAFDQRTGHKNKVTMTFHSKFGIRTPNATSGSLENN”: the “soluble on expression in E. coli” value was “not soluble”.

“MGHHHHHHSHMEVVDPQQLGMFTEGELMSVGMDTFIHRIDSTEVIYQPRRKRAKLIGKYLMGDLLGEGSYGKVKEVLDSETLCRRAVKILKKKKLRRIPNGEANVKKEIQLLRRLRHKNVIQLVDVLYNEEKQKMYMVMEYCVCGMQEMLDSVPEKRFPVCQAHGYFCQLIDGLEYLHSQGIVHKDIKPG”: the “soluble on expression in E. coli” value is “not soluble”. The same measure for “MGHHHHHHSHMEYSCGTAAIRGTKELGEGQHFWEIKMTSPVYGTLTFFKNRKCIGVAATKLQNKRFYPMVCSTAARSSMKVTRSCASATSLQYLCCHRLRQLRPDSGDTLEGLPLPPGLKQVLHNKLGWVLSMSCSRRKAPVSDPQAATSAHPSSREPRPCQRKRCRRT”: “not soluble”; for “MGHHHHHHSHMFMREIELKGHIIDSFILAKVFDRTLELGGDYKVLEFDIGKKKIDTSYAKLLISGDTQQHLDQILEELQNVGANIPEIENANLKPALKDSVLPDGFYSTTNHPTHVKVNDEWIEVANPKMDAVIVVYPEEKRAETKVIRKVKKGDFVLIGHNGIRVMPPEKSREAGQLFEFMNSEVSSEKPKEAIIKRIAKEMHEIREEYKKTGTGGIAIVGGPAIIHTGGGPALAKMVELGYIQAILAGNALATHDIESALYGTSLGVNIKTAKPVTGGHKHHIYAINAINDAGNIKNAVESGVLKEGIMYQCIKNNIPYVLAGSIRDDGPIPDVITDSMVAQDKMRTTVMDKKMVIMLSTLLHSVATGNLMPSYIKTVCVDIQPSTVTKLMDRGTSQAIGVVTDVGVFLVLLLKELERLELQE”: “soluble”. With “MGHHHHHHSHMGARMTRAFRNFNVEKRAEQEISKRKPSMAPKHPSTRSLLQEHLSQYPEIEEEVSRKDNKLLSLLRDVYVNSKDPVPSLPVKAIEPQQQPKEFRLPIGDQFDKNIKDIPKGKITVVEALTLLNNHKLSPETWTAEKIAQEYHLELEDVNSLLKYFVTFEVKIVPPEDRKAIQSK”, the “soluble on expression in E. coli” value is reported as “not soluble”.

On to “MGHHHHHHSHMGDPEYLATFRIVVMPIAREFSPDLVLVSAGFDAAEGHPAPLGGYHVSAKCFGYMTQQLMNLAGGAVVLALEGGHDLTAICDASEACVAALLGNRVDPLSEEGWKQKPNLNAIRSLEAVIRVHSKYWGCMQRLASCPDSWVPRVPGADKEEVEAVTALASLSVGILAEDRPSEQLVEEEEPMNL”, for which the “soluble on expression in E. coli” value is recorded as “not soluble”. For “MGHHHHHHSHMGKGPNLLALQLSDSTLADIIARLQAGQKLSGSSPFSSAFNSLSLDKESGLLMFKGDKKPRVWVVPTQLRRDLIFSVHDIPLGAHQRPEETYKKLRLLGWWPGMQEHVKDYCRSCLFCIPRNLIGSELKVIESPASVLRGQGVCNRSGTR”, the “soluble on expression in E. coli” value was “not soluble”.

Regarding “MGHHHHHHSHMIFLSTLFWYNKLMNKSTFSLNDTAWVDFYQLQNPRQNENYTFPAIIICPGGGYQHISQRESDPLALAFLAQGYQVLLLNYTVMNKGTNYNFLSQNLEEVQAVFSLIHQNHKEWQINPEQVFLLGCSAGGHLAAWYGNSEQIHRPKGVILCYPVTSFTFGWPSDLSHFNFEIENISEYNISEKVTSSTPPTFIWHTADDEGVPIYNSLKYCDRLSKHQVPFEAHFFESGPHGVSLANRTTAPSDAYCLPSVHRWVSWASDWLERQIKN”, the “soluble on expression in E. coli” value is “soluble”. The result for “MGHHHHHHSHMINVDPPTGNYPATGGNSTHNITSESDSRLAFKVKSSNNEHYRVRPVYGFVDAKGKSKLDINRLPGPPKEDKIVIQYAEVPAEETDPMAPFKAGAQQGEIIVKLIAA” reads “soluble”; that for “MGHHHHHHSHMKATSVIDDFLGGYFCILGLLQPHLERVAIDALQLCCLLLPPPNRRKLQLLMRMISRMSQNVDMPKLHDAMGTRSLMIHTFSRCVLCCAEEVDLDELLAGRLVSFLMDHHQEILQVPSYLQTAVEKHLDYLKKGHIENPGDGLFAPLPTYSYCKQISAQEFDEQKVSTSQAAIAELLENIIKNRSLPLKEKRKKLKQFQKEYPLIYQKRFPTTESEAALFGDKPTIKQPMLILRKPKFRSLR”, “not soluble”; that for “MGHHHHHHSHMKNMEQQHIEVVGKLGSTYGIRGWLRIYSSTEQAESIFDYQPWFLKIKGEWQSIELENWRYHNHEIIVKLKGVDDREAAQILANVEIGVDLSVFPELEEGDYYWHDLIGCTVVNLEGYTMGTVTEMMETGSNDVLVVKANTKDAFGKQERLIPFLYEQVVKRVDLTTKTIEVDWDAGF”, “soluble”. Turning to “MGHHHHHHSHMLFIKFIHLEVFSMPERAIARHEVREIEQRHTMDGPRQDATLDEEEDMVIIYNRVPKTASTSFTNIAYDLCAKNKYHVLHINTTKNNPVMSLQDQVRFVKNITSWKEMKPGFYHGHVSYLDFAKFGVKKKPIYINVIRDPIERLVSYYYFLRFGDDYRPGLRRRKQGDKKTFDECVAEGGSDCAPEKLWLQIPFFCGHSSECWNVGSRWAMDQAKYNLINEYFLVGVTEELEDFIMLLEAALPRFFRGATELYRTAPDTATPSHRHGPICGSKSISSLLVKVSPVCKDSHCLGKCSRNGLSAV”, the “soluble on expression in E. coli” value is “not soluble”. Turning to “MGHHHHHHSHMLSHFETNSALLEQLSELQGSTEPFLTEHPHMAAEHTVNWLTIAALSSAIDKNEEKLAALSEKCVVFQLFLASATGQKQFFKKFEVSENLDEVKAFKSRMRSRAQAKGEKPEKINLNQGTVDSRQFLEELKQLENLKKVRFIGKFVRKLILIVKFKFYE”, the “soluble on expression in E. coli” value was “not soluble”. Turning to “MGHHHHHHSHMNSAEQTVTWLITLGVLESPKKTISDPEGFLQASLKDGVVLCRLLERLLPGTIEKVYPEPRSESECLSNIREFLRGCGASLRLELLFPPSQPPQHLVTTILLSASTFDANDLYQGQNFNKVLSSLVTLNKVTADIGLGSDSVCARPSSHRIKSFDSLGSQSLHTR”, the “soluble on expression in E. coli” value is on record as “soluble”.

These data come from the DeepSol protein solubility set.
